Test results taken from patent US10919943B2, “Mutant proteins enabling agrochemical control of plant gene expression” (The Regents of the University of California, priority 2016, dated 2021).

System: HAB1
Test: Yeast two hybrid of pBD-PYR1 site saturation mutants with pACT-HAB1 on 10 μM ABA, β-galactosidase staining
Format: cell-based, Arabidopsis
Set-up: key: x: Mutations in PYR1 that disrupt ABA-induced binding to PYR1 to HAB1
Settings: S. cerevisiae Y190, 10 μM ABA; dead = lack of visible staining in comparison to wild type control
Summary of the method: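 S. cerevisiae Y190 co-expressing GAL4-DNA-binding-domain–PYR1 mutants and GAL4-activation-domain–HAB1 were spotted on SD (-Leu, -Trp) agar with 10 μM (+)-ABA for 2 days at 30° C. Colonies were chloroform-lysed and stained for β-galactosidase. Mutants lacking visible staining relative to wild type were scored as non-binding.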

Molecule | Mutations in PYR1 that disrupt ABA-induced binding to PYR1 to HAB1
I62R: PYR1 mutant (protein, UniProt O49686 1-191, looked up, variant I62R) Abscisic acid receptor PYR1: MPSELTPEERSELKNSIAEFHTYQLDPGSCSSLHAQRIHAPPELVWSIVRRFDKPQTYKHFRKSCSVEQNFEMRVGCTRDVIVISGLPANTSTERLDILDDERRVTGFSIIGGEHRLTNYKSVTTVHRFEKENRIWTVVLESYVVDMPEGNSEDDTRMFADTVVKLNLQKLATVAEAMARNSGDGSGSQVT | x
I62W: PYR1 mutant (protein, UniProt O49686 1-191, looked up, variant I62W) Abscisic acid receptor PYR1: MPSELTPEERSELKNSIAEFHTYQLDPGSCSSLHAQRIHAPPELVWSIVRRFDKPQTYKHFWKSCSVEQNFEMRVGCTRDVIVISGLPANTSTERLDILDDERRVTGFSIIGGEHRLTNYKSVTTVHRFEKENRIWTVVLESYVVDMPEGNSEDDTRMFADTVVKLNLQKLATVAEAMARNSGDGSGSQVT | x
K63P: PYR1 mutant (protein, UniProt O49686 1-191, looked up, variant K63P) Abscisic acid receptor PYR1: MPSELTPEERSELKNSIAEFHTYQLDPGSCSSLHAQRIHAPPELVWSIVRRFDKPQTYKHFIPSCSVEQNFEMRVGCTRDVIVISGLPANTSTERLDILDDERRVTGFSIIGGEHRLTNYKSVTTVHRFEKENRIWTVVLESYVVDMPEGNSEDDTRMFADTVVKLNLQKLATVAEAMARNSGDGSGSQVT | x
I84L: PYR1 mutant (protein, UniProt O49686 1-191, looked up, variant I84L) Abscisic acid receptor PYR1: MPSELTPEERSELKNSIAEFHTYQLDPGSCSSLHAQRIHAPPELVWSIVRRFDKPQTYKHFIKSCSVEQNFEMRVGCTRDVIVLSGLPANTSTERLDILDDERRVTGFSIIGGEHRLTNYKSVTTVHRFEKENRIWTVVLESYVVDMPEGNSEDDTRMFADTVVKLNLQKLATVAEAMARNSGDGSGSQVT | x
I62K: PYR1 mutant (protein, UniProt O49686 1-191, looked up, variant I62K) Abscisic acid receptor PYR1: MPSELTPEERSELKNSIAEFHTYQLDPGSCSSLHAQRIHAPPELVWSIVRRFDKPQTYKHFKKSCSVEQNFEMRVGCTRDVIVISGLPANTSTERLDILDDERRVTGFSIIGGEHRLTNYKSVTTVHRFEKENRIWTVVLESYVVDMPEGNSEDDTRMFADTVVKLNLQKLATVAEAMARNSGDGSGSQVT | x
I62G: PYR1 mutant (protein, UniProt O49686 1-191, looked up, variant I62G) Abscisic acid receptor PYR1: MPSELTPEERSELKNSIAEFHTYQLDPGSCSSLHAQRIHAPPELVWSIVRRFDKPQTYKHFGKSCSVEQNFEMRVGCTRDVIVISGLPANTSTERLDILDDERRVTGFSIIGGEHRLTNYKSVTTVHRFEKENRIWTVVLESYVVDMPEGNSEDDTRMFADTVVKLNLQKLATVAEAMARNSGDGSGSQVT | x
I62E: PYR1 mutant (protein, UniProt O49686 1-191, looked up, variant I62E) Abscisic acid receptor PYR1: MPSELTPEERSELKNSIAEFHTYQLDPGSCSSLHAQRIHAPPELVWSIVRRFDKPQTYKHFEKSCSVEQNFEMRVGCTRDVIVISGLPANTSTERLDILDDERRVTGFSIIGGEHRLTNYKSVTTVHRFEKENRIWTVVLESYVVDMPEGNSEDDTRMFADTVVKLNLQKLATVAEAMARNSGDGSGSQVT | x
I62D: PYR1 mutant (protein, UniProt O49686 1-191, looked up, variant I62D) Abscisic acid receptor PYR1: MPSELTPEERSELKNSIAEFHTYQLDPGSCSSLHAQRIHAPPELVWSIVRRFDKPQTYKHFDKSCSVEQNFEMRVGCTRDVIVISGLPANTSTERLDILDDERRVTGFSIIGGEHRLTNYKSVTTVHRFEKENRIWTVVLESYVVDMPEGNSEDDTRMFADTVVKLNLQKLATVAEAMARNSGDGSGSQVT | x
I62Y: PYR1 mutant (protein, UniProt O49686 1-191, looked up, variant I62Y) Abscisic acid receptor PYR1: MPSELTPEERSELKNSIAEFHTYQLDPGSCSSLHAQRIHAPPELVWSIVRRFDKPQTYKHFYKSCSVEQNFEMRVGCTRDVIVISGLPANTSTERLDILDDERRVTGFSIIGGEHRLTNYKSVTTVHRFEKENRIWTVVLESYVVDMPEGNSEDDTRMFADTVVKLNLQKLATVAEAMARNSGDGSGSQVT | x

The next lines start with the values.

Mutations in PYR1 that disrupt ABA-induced binding to PYR1 to HAB1 | Molecule
x | S85W: PYR1 mutant (protein, UniProt O49686 1-191, looked up, variant S85W) Abscisic acid receptor PYR1: MPSELTPEERSELKNSIAEFHTYQLDPGSCSSLHAQRIHAPPELVWSIVRRFDKPQTYKHFIKSCSVEQNFEMRVGCTRDVIVIWGLPANTSTERLDILDDERRVTGFSIIGGEHRLTNYKSVTTVHRFEKENRIWTVVLESYVVDMPEGNSEDDTRMFADTVVKLNLQKLATVAEAMARNSGDGSGSQVT
x | S85N: PYR1 mutant (protein, UniProt O49686 1-191, looked up, variant S85N) Abscisic acid receptor PYR1: MPSELTPEERSELKNSIAEFHTYQLDPGSCSSLHAQRIHAPPELVWSIVRRFDKPQTYKHFIKSCSVEQNFEMRVGCTRDVIVINGLPANTSTERLDILDDERRVTGFSIIGGEHRLTNYKSVTTVHRFEKENRIWTVVLESYVVDMPEGNSEDDTRMFADTVVKLNLQKLATVAEAMARNSGDGSGSQVT
x | S85D: PYR1 mutant (protein, UniProt O49686 1-191, looked up, variant S85D) Abscisic acid receptor PYR1: MPSELTPEERSELKNSIAEFHTYQLDPGSCSSLHAQRIHAPPELVWSIVRRFDKPQTYKHFIKSCSVEQNFEMRVGCTRDVIVIDGLPANTSTERLDILDDERRVTGFSIIGGEHRLTNYKSVTTVHRFEKENRIWTVVLESYVVDMPEGNSEDDTRMFADTVVKLNLQKLATVAEAMARNSGDGSGSQVT
x | S85V: PYR1 mutant (protein, UniProt O49686 1-191, looked up, variant S85V) Abscisic acid receptor PYR1: MPSELTPEERSELKNSIAEFHTYQLDPGSCSSLHAQRIHAPPELVWSIVRRFDKPQTYKHFIKSCSVEQNFEMRVGCTRDVIVIVGLPANTSTERLDILDDERRVTGFSIIGGEHRLTNYKSVTTVHRFEKENRIWTVVLESYVVDMPEGNSEDDTRMFADTVVKLNLQKLATVAEAMARNSGDGSGSQVT
x | S85R: PYR1 mutant (protein, UniProt O49686 1-191, looked up, variant S85R) Abscisic acid receptor PYR1: MPSELTPEERSELKNSIAEFHTYQLDPGSCSSLHAQRIHAPPELVWSIVRRFDKPQTYKHFIKSCSVEQNFEMRVGCTRDVIVIRGLPANTSTERLDILDDERRVTGFSIIGGEHRLTNYKSVTTVHRFEKENRIWTVVLESYVVDMPEGNSEDDTRMFADTVVKLNLQKLATVAEAMARNSGDGSGSQVT
x | S85A: PYR1 mutant (protein, UniProt O49686 1-191, looked up, variant S85A) Abscisic acid receptor PYR1: MPSELTPEERSELKNSIAEFHTYQLDPGSCSSLHAQRIHAPPELVWSIVRRFDKPQTYKHFIKSCSVEQNFEMRVGCTRDVIVIAGLPANTSTERLDILDDERRVTGFSIIGGEHRLTNYKSVTTVHRFEKENRIWTVVLESYVVDMPEGNSEDDTRMFADTVVKLNLQKLATVAEAMARNSGDGSGSQVT
x | S85M: PYR1 mutant (protein, UniProt O49686 1-191, looked up, variant S85M) Abscisic acid receptor PYR1: MPSELTPEERSELKNSIAEFHTYQLDPGSCSSLHAQRIHAPPELVWSIVRRFDKPQTYKHFIKSCSVEQNFEMRVGCTRDVIVIMGLPANTSTERLDILDDERRVTGFSIIGGEHRLTNYKSVTTVHRFEKENRIWTVVLESYVVDMPEGNSEDDTRMFADTVVKLNLQKLATVAEAMARNSGDGSGSQVT
x | S85L: PYR1 mutant (protein, UniProt O49686 1-191, looked up, variant S85L) Abscisic acid receptor PYR1: MPSELTPEERSELKNSIAEFHTYQLDPGSCSSLHAQRIHAPPELVWSIVRRFDKPQTYKHFIKSCSVEQNFEMRVGCTRDVIVILGLPANTSTERLDILDDERRVTGFSIIGGEHRLTNYKSVTTVHRFEKENRIWTVVLESYVVDMPEGNSEDDTRMFADTVVKLNLQKLATVAEAMARNSGDGSGSQVT
x | S85Y: PYR1 mutant (protein, UniProt O49686 1-191, looked up, variant S85Y) Abscisic acid receptor PYR1: MPSELTPEERSELKNSIAEFHTYQLDPGSCSSLHAQRIHAPPELVWSIVRRFDKPQTYKHFIKSCSVEQNFEMRVGCTRDVIVIYGLPANTSTERLDILDDERRVTGFSIIGGEHRLTNYKSVTTVHRFEKENRIWTVVLESYVVDMPEGNSEDDTRMFADTVVKLNLQKLATVAEAMARNSGDGSGSQVT
x | S85Q: PYR1 mutant (protein, UniProt O49686 1-191, looked up, variant S85Q) Abscisic acid receptor PYR1: MPSELTPEERSELKNSIAEFHTYQLDPGSCSSLHAQRIHAPPELVWSIVRRFDKPQTYKHFIKSCSVEQNFEMRVGCTRDVIVIQGLPANTSTERLDILDDERRVTGFSIIGGEHRLTNYKSVTTVHRFEKENRIWTVVLESYVVDMPEGNSEDDTRMFADTVVKLNLQKLATVAEAMARNSGDGSGSQVT
x | S85C: PYR1 mutant (protein, UniProt O49686 1-191, looked up, variant S85C) Abscisic acid receptor PYR1: MPSELTPEERSELKNSIAEFHTYQLDPGSCSSLHAQRIHAPPELVWSIVRRFDKPQTYKHFIKSCSVEQNFEMRVGCTRDVIVICGLPANTSTERLDILDDERRVTGFSIIGGEHRLTNYKSVTTVHRFEKENRIWTVVLESYVVDMPEGNSEDDTRMFADTVVKLNLQKLATVAEAMARNSGDGSGSQVT
x | S85P: PYR1 mutant (protein, listed as Arabidopsis thaliana) MPSELTPEERSELKNSIAEFHTYQLDPGSCSSLHAQRIHAPPELVWSIVRRFDKPQTYKHFIKSCSVEQNFEMRVGCTRDVIVIPGLPANTSTERLDILDDERRVTGFSIIGGEHRLTNYKSVTTVHRFEKENRIWTVVLESYVVDMPEGNSEDDTRMFADTVVKLNLQKLATVAEAMARNSGDGSGSQVT
